Substitutions are numbered along the chain they refer to. In names and notes the source's numbering stands.
B1: VH4-34+CDR3-IL8_CDR1-Cow_CDR2-E50S_Q5RQ6E / VL1-51 S2A, T5N, P8S, A12G, A13S, P14L, K46R, L47T, D51G, N52D, N53T, K54S, P56A IgG (antibody)
VH: QVQLREWGAGLLKPSETLSLTCTASGFSLSDKAVGWIRQPPGKGLEWIGSINHSGSTNYNPSLKSRVTISVDTSKNQFSLKLSSVTAADTAVYYCTSVHQETKKYQSPRSAKELRCQCIKTYSKPFHPKFIKELRVIESGPHCANTEIIVKLSDGRELCLDPKENWVQRVVEKFLKRAENSGSGSYTYNYEWHVDVWGQGLLVTVSS
light: QAVLNQPSSVSGSLGQKVTISCSGSSSNIGNNYVSWYQQLPGTAPRTLIYGDTSRASGIPDRFSGSKSGTSATLGITGLQTGDEADYYCASAEDSSSNAVFGSGTTLTVLGQPKAAPSVTLFPPSSEELQANKATLVCLISDFYPGAVTVAWKADSSPVKAGVETTTPSKQSNNKYAASSYLSLTPEQWKSHRSYSCQVTHEGSTVEKTVAPTECS
B2: VH4-34+CDR3-IL8_CDR1-Cow_CDR2-E50S_Q5RQ6E / VL1-51 S2A, T5N, P8S, A12G, A13S, P14L, D51G, N52D, N53T IgG (antibody)
VH: B1 VH
light: B1 light with R46K, T47L, S54K, A56P
B3: VH4-34+CDR3-IL8_CDR1-G31DY32K_Q5RQ6E / VL1-51 S2A, T5N, P8S, A12G, A13S, P14L, K46R, L47T, D51G, N52D, N53T, K54S, P56A IgG (antibody)
VH: B1 VH with T23A, A24V, S25Y, F27G, L29F, A33Y, V34W, G35S, S50E
light: B1 light
B4: VH4-34+CDR3-IL8_CDR1-Cow_Q5RQ6E / VL1-51 S2A, T5N, P8S, A12G, A13S, P14L, K46R, L47T, D51G, N52D, N53T IgG (antibody)
VH: B1 VH with S50E
light: B1 light with S54K, A56P
notes: also called BID 43; VH4-34 MutF IL-8 5R6E CD1cow
B5: VH4-34+CDR3-IL8_CDR1-Cow_CDR2-E50S_Q5RQ6E / VL1-51 I29V, N32G, K46R, L47T, D51G, N52D, N53T IgG (antibody)
VH: B1 VH
light: B1 light with A2S, N5T, S8P, G12A, S13A, L14P, I29V, N32G, S54K, A56P
B6: VH4-34+CDR3-IL8_CDR1-G31DY32K_CDR2-E50S_Q5RQ6E / VL1-51 S2A, T5N, P8S, A12G, A13S, P14L, K46R, L47T, D51G, N52D, N53T, K54S, P56A IgG (antibody)
VH: B1 VH with T23A, A24V, S25Y, F27G, L29F, A33Y, V34W, G35S
light: B1 light
B7: VH4-34+CDR3-IL8_CDR1-Cow_CDR2-Cow_Q5RQ6E / VL1-51 S2A, T5N, P8S, A12G, A13S, P14L, K46R, L47T, D51G, N52D, N53T, K54S, P56A IgG (antibody)
VH: B1 VH with I48L, N52D, H53T, S54G, S56N, N58G
light: B1 light
B8: VH4-34+CDR3-IL8_CDR1-G31DY32K_CDR2-E50S_Q5RQ6E / VL1-51 S2A, T5N, P8S, A12G, A13S, P14L, D51G, N52D, N53T IgG (antibody)
VH: B1 VH with T23A, A24V, S25Y, F27G, L29F, A33Y, V34W, G35S
light: B1 light with R46K, T47L, S54K, A56P
B9: VH4-34+CDR3-IL8_CDR1-Cow_CDR2-E50S_Q5RQ6E / VL1-51 I29V, N32G, K46R, L47T, D51G, N52D, N53T, K54S, P56A IgG (antibody)
VH: B1 VH
light: B1 light with A2S, N5T, S8P, G12A, S13A, L14P, I29V, N32G
B10: VH4-34+CDR3-IL8_CDR2-E50S_Q5RQ6E / VL1-51 S2A, T5N, P8S, A12G, A13S, P14L, K46R, L47T, D51G, N52D, N53T, K54S, P56A IgG (antibody)
VH: B1 VH with T23A, A24V, S25Y, F27G, L29F, D31G, K32Y, A33Y, V34W, G35S
light: B1 light
B11: VH4-34+CDR3-IL8_CDR1-Cow_Q5RQ6E / VL1-51 I29V, N32G, K46R, L47T, D51G, N52D, N53T, K54S, P56A IgG (antibody)
VH: B1 VH with S50E
light: B1 light with A2S, N5T, S8P, G12A, S13A, L14P, I29V, N32G
B12: VH4-34+CDR3-IL8_CDR1-Cow_Q5RQ6E / VL1-51 I29V, N32G, K46R, L47T, D51G, N52D, N53T IgG (antibody)
VH: B1 VH with S50E
light: B1 light with A2S, N5T, S8P, G12A, S13A, L14P, I29V, N32G, S54K, A56P
B13: VH4-34+CDR3-IL8_CDR1-Cow_CDR2-Cow_Q5RQ6E / VL1-51 S2A, T5N, P8S, A12G, A13S, P14L, D51G, N52D, N53T IgG (antibody)
VH: B1 VH with I48L, N52D, H53T, S54G, S56N, N58G
light: B1 light with R46K, T47L, S54K, A56P
B14: VH4-34+CDR3-IL8_CDR1-Cow_Q5RQ6E / VL1-51 S2A, T5N, P8S, A12G, A13S, P14L, K46R, L47T, D51G, N52D, N53T, K54S, P56A IgG (antibody)
VH: B1 VH with S50E
light: B1 light

Molecular target: T1, CXCR1 (UniProt P25024 1-350, limits assumed)
T1 construct: whole, on cells; DiscoveRx PathHunter cell line; any reporter tag on the receptor is not described; also called CXCR1 receptor; CXCR1-U2OS
T1 sequence (looked up): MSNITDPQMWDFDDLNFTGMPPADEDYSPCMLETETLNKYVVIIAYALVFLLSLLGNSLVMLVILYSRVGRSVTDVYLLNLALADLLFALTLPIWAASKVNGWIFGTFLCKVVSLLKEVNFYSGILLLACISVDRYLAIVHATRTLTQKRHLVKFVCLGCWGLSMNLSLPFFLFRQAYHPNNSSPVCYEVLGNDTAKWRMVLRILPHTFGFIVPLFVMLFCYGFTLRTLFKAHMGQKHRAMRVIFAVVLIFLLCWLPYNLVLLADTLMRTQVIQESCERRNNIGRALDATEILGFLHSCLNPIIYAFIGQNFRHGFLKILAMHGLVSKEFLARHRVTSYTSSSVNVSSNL
Assay: flow cytometry, supernatant at 5 nM IgG

Row | Binder | Specific Binding (CXCR1-Cell median AFU / Parental Cell median AFU)
1 | B1 | 2
2 | B2 | 2
3 | B3 | 2
4 | B4 | 10
5 | B5 | 1
6 | B6 | 3
7 | B7 | 2
8 | B8 | 1
9 | B9 | 2
10 | B10 | 1
11 | B11 | 2
12 | B12 | 1
13 | B13 | 4
14 | B14 | 3
